Consider 13 molecules from PMC8599813, “Investigating molecular mechanisms of 2A-stimulated ribosomal pausing and frameshifting in Theilovirus”.

Data set [1] has as its target Theiler's murine encephalomyelitis virus (TMEV) 2A protein (Theiler's murine encephalomyelitis virus (TMEV)). The experiment in a line: SEC-MALS; Superdex 75 increase 10/300 GL, 20 mM Tris (HCl) pH 7.5, 1.0 M NaCl, 25°C; 100 µl injected at 3.1, 0.8 and 0.38 mg/ml (200, 51.5 and 24.5 µM); Figure 1B at 3.1 mg/ml; monomer and trimer peaks.
Data set [2] concerns the target T1, TMEV 2A (Theiler's murine encephalomyelitis …, UniProt P08545 923-1055).
T1 sequence: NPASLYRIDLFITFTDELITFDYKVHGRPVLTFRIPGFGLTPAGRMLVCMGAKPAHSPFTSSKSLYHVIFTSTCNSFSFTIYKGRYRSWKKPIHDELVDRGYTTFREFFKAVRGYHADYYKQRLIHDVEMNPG
Description: EMSA; EMSA: 10 mM Tris pH 7.4, ~140 mM NaCl, 2 mM Mg acetate, 1 mM DTT, 5% glycerol, tRNA, 50 nM RNA, 37 C 20 min; MST: buffer stated as 1x of 20 mM Tris pH 7.4/80 mM NaCl/4 mM Mg acetate/2 mM DTT (2x), ~140 mM NaCl final, 5 nM RNA, 25 C; ITC: 50 mM Tris pH 7.4, 400 mM NaCl, 25 C. The note with it: protein: recombinant, tags: GST cleaved (3C protease), N-terminal GPLGS remnant, label: 5' Cy5.

Data set [3] addresses T1, TMEV 2A. Description: EMSA; ~140 mM NaCl, tRNA; EMSA: 10 mM Tris pH 7.4, ~140 mM NaCl, 2 mM Mg acetate, 1 mM DTT, 5% glycerol, tRNA, 50 nM RNA, 37 C 20 min; MST: buffer stated as 1x of 20 mM Tris pH 7.4/80 mM NaCl/4 mM Mg acetate/2 mM DTT (2x), ~140 mM NaCl final, 5 nM RNA, 25 C; ITC: 50 mM Tris pH 7.4, 400 mM NaCl, 25 C. The note with it: protein: recombinant; tags: GST cleaved (3C protease); N-terminal GPLGS remnant; label: 5' Cy5 (EMSA, MST); hairpin, 7 bp stem.

The target of data set [4] is T1, TMEV 2A. The experiment in a line: MST; ~140 mM NaCl; EMSA: 10 mM Tris pH 7.4, ~140 mM NaCl, 2 mM Mg acetate, 1 mM DTT, 5% glycerol, tRNA, 50 nM RNA, 37 C 20 min; MST: buffer stated as 1x of 20 mM Tris pH 7.4/80 mM NaCl/4 mM Mg acetate/2 mM DTT (2x), ~140 mM NaCl final, 5 nM RNA, 25 C; ITC: 50 mM Tris pH 7.4, 400 mM NaCl, 25 C. The note with it: protein: recombinant, tags: GST cleaved (3C protease), N-terminal GPLGS remnant, label: 5' Cy5 (EMSA, MST); for Kd: stem-loop/pseudoknot-like.

The target of data set [5] is T1, TMEV 2A. The experiment in a line: ITC; 400 mM NaCl; ~1:1 stoichiometry; EMSA: 10 mM Tris pH 7.4, ~140 mM NaCl, 2 mM Mg acetate, 1 mM DTT, 5% glycerol, tRNA, 50 nM RNA, 37 C 20 min; MST: buffer stated as 1x of 20 mM Tris pH 7.4/80 mM NaCl/4 mM Mg acetate/2 mM DTT (2x), ~140 mM NaCl final, 5 nM RNA, 25 C; ITC: 50 mM Tris pH 7.4, 400 mM NaCl, 25 C. Particulars: protein: recombinant; tags: GST cleaved (3C protease); N-terminal GPLGS remnant; label: 5' Cy5 (EMSA, MST); none (ITC, SEC-MALS); stem-loop/pseudoknot-like.

For the molecule “Theiler's murine encephalomyelitis virus (TMEV) 2A protein (natural protein)”, the stoichiometry N in data set [1] is 3.

Take CACAAGGUGCGGUGCUAACUAAAUCCCUAGCACCCC (structured_RNA) [TMEV 7]: in the data set with TMEV 2A [2] (stem-loop/pseudoknot-like), the binding result is reported as “binds”.

In the case of GCGGUGCUAACUAAAUCCCUAGCACCCC (structured_RNA) [TMEV 4], the binding result with TMEV 2A [3] is “no binding”.

On to GCGGUGCUAACUAAAUCCCUAGCACCCCAGGCAGGAA (structured_RNA) [TMEV 2], for which the binding result with TMEV 2A [4] (hairpin) is on record as “no binding”.

In the case of GGUGCGGUGCUAACUAAAUCCCUAGCACCCC (structured_RNA) [TMEV 12], the binding result with TMEV 2A [2] (stem-loop) is on record as “no binding”.

Turning to CAAGGUGCGGUGCUAACUAAAUCCCUAGCACCCC (structured_RNA) [TMEV 9], in the data set with TMEV 2A [2] (pseudoknot-like, G17-C38 pair), the binding result was “binds”.

Take CAACGUGCGGUGCUAACUAAAUCCGUAGCACCCC (structured_RNA) [TMEV 9 G17C+C38G]: the binding result with TMEV 2A [2] (compensatory pair 17-38) is listed as “no binding”.

Take CAACGUGCGGUGCUAACUAAAUCCCUAGCACCCC (structured_RNA) [TMEV 9 G17C]: the binding result with TMEV 2A [2] (stem-loop) is listed as “no binding”.

Take CCACAAGGUGCGGUGCUAACUAAAUCCCUAGCACCCCAGGCAGGAA (structured_RNA) [TMEV 1]: in the data set with TMEV 2A [4], the Kd came out at 484 ± 90 nM.

Regarding CCACAACGUGCGGUGCUAACUAAAUCCGUAGCACCCCAGGCAGGAA (structured_RNA) [TMEV 1 G17C+C38G], the binding result with TMEV 2A [2] (compensatory pair 17-38) is recorded as “no binding”.

On to GGGUUUUUCAGCCACAAGGUGCGGUGCUAACUAAAUCCCUAGCACCCC (structured_RNA) [TMEV 3], for which the Kd in the data set with TMEV 2A [4] came to 495 ± 110 nM.

For the molecule CCACAAGGUGCGGUGCUAACUAAAUCCCUAGCACCCC (structured_RNA) [TMEV 6], the Kd with TMEV 2A [4] (none (ITC, SEC-MALS)) stood at 280 ± 40 nM; with TMEV 2A [5], 67 ± 7 nM.

For ACAAGGUGCGGUGCUAACUAAAUCCCUAGCACCCC (structured_RNA) [TMEV 8], the binding result with TMEV 2A [2] (stem-loop/pseudoknot-like) is on record as “binds”.
